Values quoted from earlier work as cited in PMC8353491.

Target: Ubc9 (Homo sapiens) (UniProt P63279)
Chain of UniProt P63279 (P63279 2-158): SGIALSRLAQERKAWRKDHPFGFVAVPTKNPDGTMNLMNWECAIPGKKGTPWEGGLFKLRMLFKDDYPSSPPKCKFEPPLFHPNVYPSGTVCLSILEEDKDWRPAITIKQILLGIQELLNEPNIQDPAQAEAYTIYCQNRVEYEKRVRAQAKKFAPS

- Kd: 82 nM
Substance: SUMO1 (from UniProt P63165)
